# Laboratory results from the DeepSol protein solubility set.
# Experiment: soluble on expression in E. coli; label from the status in PepcDB or PDB records
row,Sequence,soluble on expression in E. coli
1,MIRLTNIKLPLDHQEHELEQAILTKLSIKAVQLIKFTVFKRGYDARKKNSIFLIYTLDVETNVDEALLATFIADTQVKETPDMAYKFVSQAPKNLKNRPVVIGMGPCGLFVGLVLAQMGFNPIVLERGQEVRQRTKDTFGFWRKKILNTESNVQFGEGGAGTFSDGKLYSQVKDPKHYSRKVLHEFVAAGAPEEILYVSKPHIGTFKLVTMVEKMRAKIFELGGEVRFNQRVDKIHFTDVEGNECTAQGIEGYQNKKVTGLTLSNGDHIETNYIALAIGHSARDTFSMLFDEDVYMKAKPFSVGFRIEHEQAVIDEARFGNNAGNEILGSADYKLVHHCSNGRSVYSFCMCPGGTVVAAASEEGRLVTNGMSQYSRLERNANSAIVVGIEPEDFITSEFASDRDYVLAGMEFQRNLEAKAFKLGGESYDAPVQLVGDFLAGRKSGEHGSVAPSYKPGVTYCDLSETLPDYAIAAIREALPAFDKKIKGFSMAEATLTAVETRTSSPIQITRDKETLQSLNAQGLYPAGEGAGYAGGILSAGIDGIKIAEAMALAITAEQEHLEHHHHHH,not soluble
2,MVIERSCMGDLDKNPAVKAMVVFRKAMRTIDAQVAPSYKNNGLTQTQFAVLDVLYAKGEMTISRLIASILATSGNMTVVIKNMERNGWIYRSPNPDDRRASVVGLTEVGKQLIQKALPDHIAMVEAAFSVMTEEEQLVLIDLLKKFKSL,not soluble
3,MGSDKIHHHHHHMTNYIEEYCAQIRRMGSAGLIAKPILVDQDGTYTMTYVPHEHLNLGARLVLVSTTPGHAHVRLAAAVTEELLQARTPGRVIQRENKRRVELGGQLIRPNLIRMLDHFRAPELVGLPHAAALWNEGFEQFQPLALLPCATTRRGLAFNGTLEDLLAAPMLRAAFEAHFLGALRQMRPDAFYIALGRTAWSGLRHAASRRLLAKHQLLGMMPVPARAGNMVRYFLREISANDLSPNDPVRHRVDWLDAAHTELMANVQKVRAANMPPEGPNYLIA,not soluble
4,MNKSRVVVGMSGGVDSSVAALLLKQQGYDVTGLFMKNWEEDDTDEYCSSRQDFLDAASVADILDIPLEVVNFSTEYRERVFNLFLKEYQAGRTPNPDVLCNSEIKFRAFLDHALNLGADWIATGHYAQVHETDGLFQLLKGEDGNKDQSYFLYRLNQQQLSHTIFPIGHLYKREVRKIAREHRLPNSTKKDSTGICFIGERPFREFLNRYLPANPGEIHTLDDQVVGEHLGVMYYTIGQRQGLGIGGTRQGSEQPWFVSGKDIKKNVLYVVQGHDHPALLRSSLTAADLSWISGTPPHQNWVYAAKIRYRQTDAPCAITHFEHDSCQIGFAAPQWGITPGQSVVVYESKVCLGGGVIIGSNDLEHHHHHH,not soluble
5,SNAAQQVQQPVAQQQVQQPAQQNTNTANAGGNQNQAAPVQNQPVAQPTDIDGTYTGQDDGDRITLVVTGTTGTWTELESDGDQKVKQVTFDSANQRMIIGDDVKIYTVNGNQIVVDDMDRDPSDQIVLTK,soluble
6,MDASIEKRPRTRLSPQKRKLQLMEIALEVFAKRGIGRGGHADIAEIAQVSVATVFNYFPTREDLVDDVLNFVVRQYSNFLTDHIDLDLDVKTNLQTLCKEMVKLAMTDCHWLKVWFEWSASTRDEVWPLFVSTNRTNQLLIRNMFMKAMERGELCEKHDVDNMASLFHGIFYSIFLQVNRLGEQEAVYKLADSYLNMLCIYKN,soluble
7,MGSDKIHHHHHHMNNIYSDIYEKLSTLQWLMKRHQMFCQAESGPFADTSRGQGRILAMLKIQPEIATKELAYLLGIRQQSLNELLNKMEKNGYVERKPSENDKRVMIVHLTEKGKQVQQPKTDYQNIFNCLLPEELLQMSQYLDRIIEAFQLQNGNALEENNMIDWMAQARERMGDEHFEQLMSMRERAFGHMRPPKDIPGAERFSENYNGYVPDRDGFQPRNFRPDIK,not soluble
8,MKKKADFLELFAVEKPIIGVIHLKGKTDQEIQERAKKEIQIYSEHGVDAILMENYYGDYVQLEKALQYVTSLDLPIPIGVNVLNVDPLGFHLANKYHLQFLQIDSVVGHVKPRDEASLQAFFDLYRAKTTAKLIGGVRFKYQPMLSEKSVEEDLKIAQQRCDAIAVTENATGEETSLEKIKLFRKQLPEFPLIVAAGLNDKSVKEQLAICDAAIVGSNFKDTRKDTGDIYAPYVDSFMKIVKELRGELEHHHHHH,soluble
9,MGSDKIHHHHHHMRDLLNDLSEGLSHPDPILRAQIQMQKPLPKRFYKDVTVADVEEGGFTILLDGKPLRTPAKKPLVAPSRALADLLRDEWDAQKEVVNPVVMPVSRHVNTAIDGIASDTQAVFEDILRFSSSDLLCYRAGDPEALVARQTDYWDPVLDWATNVLGARFILVEGVMHRDQPREAIAAFAVTLKKYDTPIALAALHTMTSLTGSAILALALAEGELTLEEAWALAHLDEDWTAEQWGEDEEALERRAVRLIDMRAALNVLESLKSAS,not soluble
10,MSLISLQSDQLLEATVGQFMIEADKVAHVQVGNNLEHALLVLTKTGYTAIPVLDPSYRLHGLIGTNMIMNSIFGLERIEFEKLDQITVEEVMLTDIPRLHINDPIMKGFGMVINNGFVCVENDEQVFEGIFTRRVVLKELNKHIRSLNKEGGSHHHHHH,soluble
11,MSLIAIYVRVSTEEQAIKGSSIDSQIEACIKKAGTKDVLKYADEGFSGELLERPALNRLREDASKGLISQVICYDPDRLSRKLMNQLIIDDELRKRNIPLIFVNGEYANSPEGQLFFAMRGAISEFEKAKIKERTSSGRLQKMKKGMIIKDSKLYGYKFVKEKRTLEILEEEAKIIRMIFNYFTDHKSPFFGRVNGIALHLTQMGVKTKKGEGHHHHHH,not soluble
12,SELPRKANRRNSSCSSISSVSESSSPSALDESTLTKILPTDNFRGGRGFASPSPPTSLLSEPLSRMDVLSEKIWDYHNKVSQTDEMLQRKLHLRDMLYTAISPVFPLSGLYVVGSSLNGFGNNSSDMDLCLMITNKDLDQKNDAVVVLNLILSTLQYEKFVESQKLILAKVPILRINFAAPFDDITVDLNANNSVAIRNTHLLCYYSSYDWRVRPLVSVVKEWAKRKGINDANKSSFTSYSLVLMVIHFLQCGPTKVLPNLQQSYPNRFSNKVDVRTLNVTMALEEVADDIDQSLSEKTTLGELLIGFLDYYANEFNYDRDAISIRQGRRVERAALAVRPKIHSNSEGDKETPPPSSSASTSSIHNGGTPGIPMHHSISNPHFWRSQWRCVCIEEPFTNSNTAHSIYDEMVFEAIKKAFREAHGELQHNHDLDKLMECEPIKASTTNTGAAVFAATYEGERPLAQQPNTIACASLRVLNSIPVSSGPGHYHYQQQSNQNLSRPQRPGSNQGYQMNNNRGFNGNNQQQHQNRRSFNNQSSSNPGNGSTGPRSSRSNENVRDSSRQQNSQKGSSGVSVSKENVASTTGVPVDKKQQNSNRKDDGNRTKRSPMVQSPEPAKTKSEKTPMASSNVSQ,soluble
13,MGSDKIHHHHHHMDELVDGERESGRAALGRTLRLLREKSGKTLGQLAGETSYDKSYLYRLETGERLSKRAVMEDLDRYHGSGDLLVRLWRDARKDVIKDKYKAFMELEATARVMWKFQLRVPGLLQTEDYARVVLSGLSRAQTTAGNGEEVEEQVAARVGRQEMLHRQPAPSVRVILDEGALRRRVPKEKVWADQLVHLVDVAELASVTLQVLPFTAGVHDLMNSDLTLMWQRVGEPVAYVEGNGFGELVDDPDKVLSYRLSYDLVRDAALTPAESTTFIKRLLEECRS,not soluble
14,MGETYDLLVIGGGINGVGIARDAAGRGLSVCLCEQDDLAAHTSSASTKLIHGGLRYLEQYEFALVGKALAEREVLLRLAPHIIWPLRFLLPHQPHLRPAWMIRAGLFLYDHLGGSKRSLPRSRRLSLRTHPVGQPLQESLRTGFVYSDAWVQDARLVVLNAMDAAKRGAQIHTRTRCVGAWRDAGFWYAELEGCDGRRRTVQSRALANAAGPWAVSFLDKVAAVPHQHALRLVKGSHIVVPKLFDHDHAYIFQQPDRRIVFAIPYEHDFTLIGTTDVDYEADPSAPKIDAAEVQYLCDAVNLYFQQQITPQDVVWNYSGVRPLLDDAEDNAAEVTRDYQLEVLTDGAPLLNVFGGKLTTYRKLAEEAVDRLTQALGARKPAWTARGEALPGGEQRDIASLLERVRTARPWLPAATAQRLVRNYGTCAEQLLGDAQDMAALGQHFGADLYQAEVDYLCAREWAQTADDILWRRSKLGLRVDAEARARLEAYLQTRPAAHANAQTHVVPALEHHHHHH,not soluble
15,NTKGIDEIKNLETDFNGRIGVYALDTGSGKSFSYRANERFPLCSSFKGFLAAAVLKGSQDNRLNLNQIVNYNTRSLEFHSPITTKYKDNGMSLGDMAAAALQYSDNGATNIILERYIGGPEGMTKFMRSIGDEDFRLDRWELDLNTAIPGDERDTSTPAAVAKSLKTLALGNILSEHEKETYQTWLKGNTTGAARIRASVPSDWVVGDKTGSCGAYGTANDYAVVWPKNRAPLIISVYTTKNEKEAKHEDKVIAEASRIAIDNLK,soluble
16,MEMKNVKGTKDYLPEEQVLRNKIKRACEDTFERYGCKPLETPTLNMYELMSYKYGGGDEILKEIYTLQDQGKRNLALRYDLTIPFAKVVAMNPNIRLPFKRYEIGKVFRDGPIKQGRFREFIQCDVDIVGVESVMAEAELMSMAFELFRTLNLEVTIQYNNRKLLNGILESINIPTERTSDVILSLDKIEKIGIDGVRKDVLERGISEEMADTICNTVLSCLKLTIADFKEAFNNPLVADGVNELQQLQQYLIALGINENAIFNPFLARGLTMYTGTVYEIFLKDGSITSSIGSGGRYDNIIGAFRGDNMNYPTVGISFGLDVIYTALSQKETISSTADVFIIPLGTELQCLQIAQQLRSTTSLKVELELAGRKLKRALNYANKENIPYVLIIGEDELSTETVVLRNMKEGSEVKVPLSSLKDNTFNNYCNIPIKL,soluble
17,MATQTAVTATTVPQGSPSVTGSASQGGILNSARQFFSLAAPKVEKDKEFSFRFLTSPLRSKPAATVNADNFYMYACGSINMP,not soluble
18,MEQKFCQSCGMPLNPEVLGTEKDGSKNEEYCTYCYADGHFTVECTMDEMINQCAQFVDEFNKGSEVKMTKEEAIANMKQFFPMLKRWKQ,not soluble
19,MSLRPGIKALAEATGYSIATVSKALNGSPMVAPATKALIHRAAADIGYRANARGMALRTGRTCQAAVLMPVTAARDYEWDGVEYTQILSGISQALEGSDYRMSVHVVRNVEDGCEVARRIIDEGLADGLIFSGIRADDPRIDLLDESRFPFVSLGRCRKPLDYAHVDIDNEWAAHAATARLIAGGHRRIALVNPLRHLSYAEDRVDGFLRAFREANLSPSDDLIAEGDLSTHFGRESALGLLDAARPPTAFVCSNESTTLGVLSGLGSRGRRIGVDVDVVAYDDINVSAYFTPPITTFYQPIEVLGRTLGEFLLRRMAGEDARSLKQVFRPRLIERQPDSLGGREGHHHHHH,soluble
20,MSRNLHHTEEIYQSSYLNSSLIEFMPNTILPGKETVFMSSKMEQIIEEIEDYIDGCKPSPISRNKILVNREQLEELLSELRTKTPEEVKRYQKIISNKEAILADAQAKADQIIAQAQIQTNELVSEHQIMQQAYAQANEVVQIATKQAQEILDSATNEANNLRMSAMAYTDSQLKSIEDILTGSIETSKARYDSLISSLQQFEDVVAANRAELFPPEENGDEAAGAESSDNEATSDTSDDDIEITNISDSDEDAK,not soluble
21,MGSDKIHHHHHHMCRWLAYTGNPIHLETVLFRAKHSLIDQSLHSELGATTTNGDGFGIGWYGDPDELPFRYRSVHPAWNDRNLREAARAIRSRMFVAHIRAATDTPVQETNCHPFRHGRWLFAHNGLIRDFHKLRRDLTMKVDPALFPTLEGSTDSELMFRLALTYGLEQTPLPALERMVGMVEETAARYRVDEPLNMTICATDGDRIIAVRYSSERQSRSLFHTTSFKHLHELYPHNPRIAEAGDDAFMVVSEPLVDLRGAWEEVAESTAIVAQGADVQQRPFNPRHT,not soluble
